# T1: Ecdysteroid receptor (EcR), ligand binding part (C-terminus of D- and E-domain) (UniProt P34021 400-655)
# T1 sequence (looked up): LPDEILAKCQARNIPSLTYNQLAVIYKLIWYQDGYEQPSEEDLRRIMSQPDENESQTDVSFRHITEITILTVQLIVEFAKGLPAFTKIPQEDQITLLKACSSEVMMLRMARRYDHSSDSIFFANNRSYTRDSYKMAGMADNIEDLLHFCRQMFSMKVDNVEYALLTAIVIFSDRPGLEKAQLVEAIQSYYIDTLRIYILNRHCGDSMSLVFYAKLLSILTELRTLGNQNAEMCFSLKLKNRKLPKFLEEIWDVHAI
# B1: Ultraspiracle (USP), ligand binding part (C-terminus of D- and E-domain) (domain or fragment, UniProt P20153 230-508, looked up)
# chain: MTNSVSRDFSIERIIEAEQRAETQCGDRALTFLRVGPYSTVQPDYKGAVSALCQVVNKQLFQMVEYARMMPHFAQVPLDDQVILLKAAWIELLIANVAWCSIVSLDDGGAGGGGGGLGHDGSFERRSPGLQPQQLFLNQSFSYHRNSAIKAGVSAIFDRILSELSVKMKRLNLDRRELSCLKAIILYNPDIRGIKSRAEIEMCREKVYACLDEHCRLEHPGDDGRFAQLLLRLPALRSISLKCQDHLFLFRITSDRPLEELFLEQLEAPPPPGLAMKLE
# Target: T1, Ecdysteroid receptor (EcR), ligand …
# Assay: native gel or EMSA
binder,measurement,value
B1,fold of the affinity constant of heterodimerization against homodimerization,~10 fold

# — PMC405831 (Journal of Insect Science, 2002)
